Laboratory results taken from patent US20240270821A1, “GIP/GLP1/GCG TRI-RECEPTOR AGONISTS AND USES THEREOF” (priority 2023, published 2024).
Starred links: 1 amine or outer side, 2 acyl side, 3 side chain; linkers in the order of their positions; H or OH if unused. Non-standard residues stand in square brackets, D forms with d. Groups on a side chain read outwards from the residue. No end group written: not given here. *: point of attachment. C18 diacid = O=C(O)CCCCCCCCCCCCCCCCC(=O)*; γGlu = O=C(O)[C@H](CCC(=O)[*:2])N[*:1]; αMeL = CC(C)C[C@](C)(N)C(=O)O; Dap = NC[C@H](N)C(=O)O; AEEA = NCCOCCOCC(=O)O; Aib = CC(C)(N)C(=O)O

T1: human GIP receptor (human) (UniProt P48546)
T1 sequence (looked up): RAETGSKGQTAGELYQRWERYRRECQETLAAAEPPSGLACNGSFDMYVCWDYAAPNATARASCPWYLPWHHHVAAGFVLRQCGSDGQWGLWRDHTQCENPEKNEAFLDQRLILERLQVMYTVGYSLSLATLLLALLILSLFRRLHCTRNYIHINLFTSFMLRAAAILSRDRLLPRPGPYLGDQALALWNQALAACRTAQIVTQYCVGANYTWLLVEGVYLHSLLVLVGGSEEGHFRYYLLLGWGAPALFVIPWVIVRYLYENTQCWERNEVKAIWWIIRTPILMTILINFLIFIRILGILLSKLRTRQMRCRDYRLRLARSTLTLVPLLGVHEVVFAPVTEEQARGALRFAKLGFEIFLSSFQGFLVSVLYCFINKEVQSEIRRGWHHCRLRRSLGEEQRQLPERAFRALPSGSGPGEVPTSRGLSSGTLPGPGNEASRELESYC


Assays:
Test in all cases: cell-based or functional assay
hGLP-1R = hGLP-1R (Homo sapiens, UniProt P43220)
[1] = biological target: T1, human GIP receptor (human)
[2] = biological target: human GLP1-R (SNAP-GLP-1R expressed in HEK293 cells) (human) (UniProt P43220)
[3] = biological target: human glucagon receptor (human) (UniProt P47871)
Sequence of human glucagon receptor (human) (P47871 26-477): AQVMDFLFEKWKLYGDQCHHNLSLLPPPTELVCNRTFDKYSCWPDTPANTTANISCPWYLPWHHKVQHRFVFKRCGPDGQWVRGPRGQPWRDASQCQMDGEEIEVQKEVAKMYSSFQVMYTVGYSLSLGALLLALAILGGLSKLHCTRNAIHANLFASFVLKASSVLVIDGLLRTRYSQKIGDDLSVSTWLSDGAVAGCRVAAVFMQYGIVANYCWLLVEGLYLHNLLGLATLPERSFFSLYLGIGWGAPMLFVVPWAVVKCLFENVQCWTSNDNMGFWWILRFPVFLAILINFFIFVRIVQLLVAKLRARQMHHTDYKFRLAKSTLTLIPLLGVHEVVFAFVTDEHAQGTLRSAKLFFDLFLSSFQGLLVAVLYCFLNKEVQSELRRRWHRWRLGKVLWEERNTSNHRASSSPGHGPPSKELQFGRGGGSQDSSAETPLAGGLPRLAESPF

Sequence of hGLP-1R (P43220 24-463): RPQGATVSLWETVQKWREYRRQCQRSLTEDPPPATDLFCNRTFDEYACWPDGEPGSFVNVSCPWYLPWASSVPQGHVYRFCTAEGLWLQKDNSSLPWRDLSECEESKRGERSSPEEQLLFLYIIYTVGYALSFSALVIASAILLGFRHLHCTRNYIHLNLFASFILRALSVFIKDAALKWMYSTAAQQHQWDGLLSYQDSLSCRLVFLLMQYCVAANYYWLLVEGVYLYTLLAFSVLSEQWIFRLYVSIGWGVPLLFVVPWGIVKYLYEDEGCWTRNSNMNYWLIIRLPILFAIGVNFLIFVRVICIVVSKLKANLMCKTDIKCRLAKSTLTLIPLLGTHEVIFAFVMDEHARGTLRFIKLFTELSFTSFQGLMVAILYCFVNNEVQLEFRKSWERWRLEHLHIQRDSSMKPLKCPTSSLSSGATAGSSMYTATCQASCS
Sequence of human GLP1-R (SNAP-GLP-1R expressed in HEK293 cells) (human) (P43220 24-463): as above

Row | Binder | Relative cAMP EC50 (hGLP-1R) | cAMP Rel EC50 (in the presence of 1% HSA) (hGLP-1R) | Relative cAMP EC50 [1] | cAMP Rel EC50 (in the presence of 1% HSA) [1] | GLP1R Internalization EC50 [2] | Internalization % TOP [2] | Relative cAMP EC50 [3] | cAMP Rel EC50 (in the presence of 1% HSA) [3] | cAMP Rel EC50, nM (in the presence of 1% HSA) (hGLP-1R) | cAMP Rel EC50, nM (in the presence of 1% HSA) [1] | cAMP Rel EC50, nM (in the presence of 1% HSA) [3]
1 | YXQGTFTSDFSKXLDKKAQXAFIEYLLEXGPSSGEPPPSEG (Aib, αMeL; acylated Lys; C-terminal amide; synthetic construct; SITE 2: note = 2-Aminoisobutyric Acid; SITE 13: note = alpha-methyl-leucine; SITE 17: note = Lysine is chemically modified through conjugation of the epsilon-amino group of the Lysine side chain with (2-[2-(2-Amino-ethoxy)-ethoxy]-acetyl)-(gamma-Glu)-CO-(CH2) 16-CO2H; SITE 20: n) [Example 46] | 4.04 nM | 601 nM | 0.0947 nM | 19.6 nM | 41 nM | 58.1% | 1.53 nM | 393 nM | – | – | –
2 | YXQGTFTSDFSXXLDKKAQXAFIEYLLAGGPSSGAPPPSGT (synthetic construct; SITE 2: note = 2-Aminoisobutyric Acid; SITE 12: note = L-ornithine; SITE 13: note = alpha-methyl-leucine; SITE 17: note = Lysine is chemically modified through conjugation of the epsilon-amino group of the Lysine side chain with (2-[2-(2-Amino-ethoxy)-ethoxy]-acetyl)-(gamma-Glu)) [Example 87] | 2.75 nM | – | 0.128 nM | – | 61.8 nM | 45.4% | 8.51 nM | – | 290 nM | 12.8 nM | 1110 nM
3 | YXQGTFTSDFSXXLDKKAQXAFIEYLLEXGPSSGAPPPSGS (synthetic construct; SITE 2: note = 2-Aminoisobutyric Acid; SITE 12: note = L-ornithine; SITE 13: note = alpha-methyl-leucine; SITE 17: note = Lysine is chemically modified through conjugation of the epsilon-amino group of the Lysine side chain with (2-[2-(2-Amino-ethoxy)-ethoxy]-acetyl)2-(gamma-Glu)) [Example 75] | 4.4 nM | – | 0.0578 nM | – | 61.8 nM | 51.9% | 4.51 nM | – | 878 nM | 16.8 nM | 1040 nM
4 | YXQGTFTSDFSXXLDKKAQXAFIEYLLEXGPSSGAPPPSEG (synthetic construct; SITE 2: note = 2-Aminoisobutyric Acid; SITE 12: note = L-ornithine; SITE 13: note = alpha-methyl-leucine; SITE 17: note = Lysine is chemically modified through conjugation of the epsilon-amino group of the Lysine side chain with (2-[2-(2-Amino-ethoxy)-ethoxy]-acetyl)2-(gamma-Glu)) [Example 71] | 3.12 nM | – | 0.105 nM | – | 58.8 nM | 68.6% | 8.74 nM | – | 1010 nM | 48.1 nM | 2800 nM
5 | YXQGTFTSDFSKXLDKKAQXAFIEYLLEXGPSSGAPPPGEG (synthetic construct; SITE 2: note = 2-Aminoisobutyric Acid; SITE 13: note = alpha-methyl-leucine; SITE 17: note = Lysine is chemically modified through conjugation of the epsilon-amino group of the Lysine side chain with (2-[2-(2-Amino-ethoxy)-ethoxy]-acetyl)2-(gamma-Glu)-CO-(CH2 )18-CO2H; SITE 20:) [Example 55] | 1.96 nM | – | 0.0856 nM | – | 79.5 nM | 70.7% | 5.2 nM | – | 479 nM | 27.8 nM | 960 nM
6 | YXQGTFTSDFSKXLDKKAQXAFIEYLLEGGPSSGAPPPSEG (not fully specified; synthetic construct; SITE 2: note = 2-Aminoisobutyric Acid; SITE 13: note = alpha-methyl-leucine; SITE 17: note = Lysine is chemically modified through conjugation of the epsilon-amino group of the Lysine side chain with (2-[2-(2-Amino-ethoxy)-ethoxy]-acetyl)-(gamma-Glu)-CO-(CH2) 16-CO2H; SITE 20: n) [Example 48] | 2.99 nM | – | 0.27 nM | – | 44 nM | 55.2% | 3.8 nM | – | 570 nM | 46.9 nM | 728 nM
7 | YXQGTFTSDFSXXLDKKAQXAFIEYLLEGGPSSGAPPPGGS (synthetic construct; SITE 2: note = 2-Aminoisobutyric Acid; SITE 12: note = L-ornithine; SITE 13: note = alpha-methyl-leucine; SITE 17: note = Lysine is chemically modified through conjugation of the epsilon-amino group of the Lysine side chain with (2-[2-(2-Amino-ethoxy)-ethoxy]-acetyl)-(gamma-Glu)) [Example 62] | 2.72 nM | – | 0.146 nM | – | 40.3 nM | 44.9% | 3.96 nM | – | 299 nM | 31.2 nM | 396 nM
8 | YXQGTFTSDFSXXLDKKAQXAFIEYLLEXGPSSGEPPPGEG (synthetic construct; SITE 2: note = 2-Aminoisobutyric Acid; SITE 12: note = L-ornithine; SITE 13: note = alpha-methyl-leucine; SITE 17: note = Lysine is chemically modified through conjugation of the epsilon-amino group of the Lysine side chain with (2-[2-(2-Amino-ethoxy)-ethoxy]-acetyl)2-(gamma-Glu)) [Example 69] | 3.25 nM | – | 0.136 nM | – | 71.9 nM | 58.2% | 4.75 nM | – | 279 nM | 25.6 nM | 387 nM
9 | YXQGTFTSDFSKXLDKKAQXQFIEYLLEGGPSSGAPPPSEG (synthetic construct; SITE 2: note = 2-Aminoisobutyric Acid; SITE 13: note = alpha-methyl-leucine; SITE 17: note = Lysine is chemically modified through conjugation of the epsilon-amino group of the Lysine side chain with (2-[2-(2-Amino-ethoxy)-ethoxy]-acetyl)-(gamma-Glu)-CO-(CH2) 16-CO2H; SITE 20: n) [Example 51] | 5.8 nM | – | 0.421 nM | – | 89.2 nM | 55.7% | 5.15 nM | – | 1210 nM | 98.4 nM | 856 nM
10 | Y[Aib]QGTFTSDFS[Dap][αMeL]LDKK([AEEA-γGlu-C18 diacid])AQ[Aib]AFIEYLLEGGPSSGAPPPGGS-NH2 (ends and bridges not checked) [Example 68] | 3.07 nM | – | 0.46 nM | – | 95.2 nM | 33.8% | 8.55 nM | – | 612 nM | 85.1 nM | 1160 nM
11 | YXQGTFTSDFSXXLDKKAQXAFIEYLLEGGPSSGAPPPGGSX (synthetic construct; SITE 2: note = 2-Aminoisobutyric Acid; SITE 12: note = L-ornithine; SITE 13: note = alpha-methyl-leucine; SITE 17: note = Lysine is chemically modified through conjugation of the epsilon-amino group of the Lysine side chain with (2-[2-(2-Amino-ethoxy)-ethoxy]-acetyl)-(gamma-Glu)) [Example 66] | 3.86 nM | – | 0.219 nM | – | 42.1 nM | 46.3% | 3.71 nM | – | 329 nM | 29.9 nM | 415 nM
